Key:
[1] = biological target: antibody captured on the human Fab capture surface (unnamed IgG); experiment: SPR (BIAcore), antibody captured via human Fab capture kit, 50 nM receptor injected, 25 C
[2] = biological target: antibody captured on the human Fab capture surface (unnamed IgG); experiment: SPR (BIAcore), antibody captured via human Fab capture kit, 50 nM fusion polypeptide injected, 25 C

response units [1] [RU] | response units [2] [RU] | Substance
40 | – | FcgammaRIIIaV158 (intact HisAvi-tag comprising functional variant of FcgRIIIa) (receptor)
– | > 100 | FcgammaRIIIaV158-Avi-IgA Protease-Fc LALA P329G fusion polypeptide (Fc fusion)

Reference: US20150140683A1
